Biological target: TevCas9 H557A (I-TevI domain-linker-SaCas9 H557A nickase) (Enterobacteria phage T4 / Staphylococcus aureus) (UniProt P13299+J7RUA5)
Test: cleavage_in_vitro

| Substance | binding signal (fold rate vs wild-type EGFR) (faster cleavage of exon 19 deletion, PAM not stated) | relative cleavage rate (fold rate (reference)) (4-fold slower than exon 19 deletion substrate) |
| --- | --- | --- |
| EGFR guide RNA ; EGFR exon 19 deletion DNA substrate | 4 | – |
| EGFR guide RNA ; EGFR wild-type DNA substrate | – | 1 |
